Residue numbers refer to the chain shown, from its start. Read-outs that look alike come from different tables or passages of the source. Blank lines part the entries; values can stand above or below the binder they belong to.
How the values were obtained:
[1] = biological target: T1, CTNI quality control recombinant protein (PK2-CTNI-1, 170120, produced by the applicant) (human, UniProt P19429 2-210, limits assumed); experiment: AMC sensor kinetics, antibody captured, cTnI analyte
T1 construct: also called cardiac troponin I
T1 sequence (P19429 2-210 limits assumed): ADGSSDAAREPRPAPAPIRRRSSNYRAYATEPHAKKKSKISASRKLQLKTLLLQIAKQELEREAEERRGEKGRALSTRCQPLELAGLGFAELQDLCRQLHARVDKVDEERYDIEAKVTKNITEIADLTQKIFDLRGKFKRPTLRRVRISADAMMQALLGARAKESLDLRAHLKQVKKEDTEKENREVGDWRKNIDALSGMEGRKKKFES

[2] = biological target: T1, CTNI quality control recombinant …; experiment: as above; remark: listed apart in the source
Experimental: Using the AMC sensor, the purified antibody was diluted with PBST to 10 μg/ml, and the CTNI quality control recombinant protein (PK2-CTNI-1, 170120, produced by the applicant) was serially diluted with PBST to 400 nmol/ml, 200 nmol/ml, 100 nmol/ml, 50 nmol/ml, 25 nmol/ml, 12.5 nmol/ml, 6.25 nmol/ml, and 0 nmol/ml.

[3] = biological target: T1, CTNI quality control recombinant …; experiment: indirect ELISA, cTnI coated 1 ug/ml, antibody 1000 ug/ml
Experimental: (§1) The cTnI quality control after diluted to 1 μg/ml with the coating solution was used for microplate coating at 100 uL per well and left at 4° C. overnight. The next day, the microplate was washed twice with the wash solution and tapped for drying. The blocking solution (20% BSA+80% PBS) was added at 120 μL per well and left for 1 h at 37° C., and the microplate was tapped for drying. The diluted cTn monoclonal antibody was added at 100 μL per well and left for 30 min at 37° C.; then the microplate was washed 5 times with the wash solution and tapped for drying. The goat anti-mouse IgG-HRP was added at 100 μL per well and left for 30 min at 37° C.; then the microplate was washed 5 times with the wash solution and tapped for drying. Colour-developing solution A was added at 50 μL per well, followed by colour-developing solution B at 50 μL per well; the mixed solution was left for 10 min; and stopping solution was added at 50 μL per well. The OD value was read out at 450 nm (reference at 630 nm) on the microplate reader.

[4] = biological target: T1, CTNI quality control recombinant …; experiment: indirect ELISA, cTnI coated 1 ug/ml, antibody 8 ug/ml
Experimental: as §1

[5] = biological target: T1, CTNI quality control recombinant …; experiment: indirect ELISA, cTnI coated 1 ug/ml, antibody 0.32 ug/ml
Experimental: as §1

[6] = biological target: T1, CTNI quality control recombinant …; experiment: indirect ELISA, cTnI coated 1 ug/ml, antibody 1.6 ug/ml
Experimental: as §1

[7] = biological target: T1, CTNI quality control recombinant …; experiment: indirect ELISA, cTnI coated 1 ug/ml, antibody 40 ug/ml
Experimental: as §1

[8] = biological target: T1, CTNI quality control recombinant …; experiment: indirect ELISA, cTnI coated 1 ug/ml, antibody 0 ug/ml (blank)
Experimental: as §1

[9] = biological target: T1, CTNI quality control recombinant …; experiment: indirect ELISA, cTnI coated 1 ug/ml, antibody 200 ug/ml
Experimental: as §1

B1: WT 1-50 (antibody, V domains shown)
VH: EVQLQQSGAELVKPGASVKLSCTASGFNLKEYYMHWMKQRTEQGLDWIGRIEPEDGETRYAPEFQGKATITADTSSNTAYLQLSTLTSEDTAVYYCARYYTSYLPFVYWGQGTLVTASA
VL: DVVMTQTPLSLSVSLGDQASISCRSSQSLIYSNKHTYLHWYLQKPGQSPKLLIFQLSQRFSGVPDRFSGSGSGTDFTLKINRVEAEDLGVYFCSNSTHLPYTFGSGTKLEIKR
notes: Built as for Mutation 1
Kd [1]: 0.702 nM | koff [1]: 0.000489 s⁻¹ | kon [1]: 696000 M⁻¹ s⁻¹

B5: Mutation 1-52 (antibody, V domains shown)
VH: B1 VH with L29I, E31D, Y33F, E52D, G56A, T101S, L104V
VL: B1 VL with I30L, K34R, L56V, Q58N, N95Q, Y101F
notes: built as for Mutation 1
Kd [2]: 0.941 nM | koff [2]: 0.000229 s⁻¹ | kon [2]: 243000 M⁻¹ s⁻¹

B7: Mutation 1-50 (antibody, V domains shown)
VH: B1 VH with E31D, Y33F, E52D, G56A, R59K, T101S, L104I
VL: B1 VL with L29I, I30L, K34R, L56I, Q58N, N95Q, L99I, Y101F
notes: built as for Mutation 1
Kd [2]: 0.386 nM | koff [2]: 5.48e-05 s⁻¹ | kon [2]: 142000 M⁻¹ s⁻¹

B9: Mutation 4 (antibody, V domains shown)
VH: B1 VH with E31D, Y33F, G56A, T101S, L104I
VL: B1 VL with L29I, L56I, Q58N, Y101F
notes: built as for Mutation 1
OD 450 nm (reference 630 nm) [3]: 2.22 OD | OD 450 nm (reference 630 nm) [4]: 1.75 OD | OD 450 nm (reference 630 nm) [5]: 0.314 OD | OD 450 nm (reference 630 nm) [6]: 0.689 OD | OD 450 nm (reference 630 nm) [7]: 1.98 OD | OD 450 nm (reference 630 nm) [8]: 0.03 OD | OD 450 nm (reference 630 nm) [9]: 2.15 OD

B10: Mutation 2 (antibody, V domains shown)
VH: B1 VH with Y33F, E52D, G56A, L104I
VL: B1 VL with L29I, K34R, L56I, Q58N, N95Q, Y101F
notes: built as for Mutation 1
OD 450 nm (reference 630 nm) [3]: 2.38 OD | OD 450 nm (reference 630 nm) [4]: 1.8 OD | OD 450 nm (reference 630 nm) [5]: 0.233 OD | OD 450 nm (reference 630 nm) [6]: 0.724 OD | OD 450 nm (reference 630 nm) [7]: 2.3 OD | OD 450 nm (reference 630 nm) [8]: 0.04 OD | OD 450 nm (reference 630 nm) [9]: 2.42 OD

B12: WT 1-14 (antibody, V domains shown)
VH: B1 VH with L29I, Y33F, G56A, R59K, L104I
VL: B1 VL with I30L, L56I, L99I, Y101F
notes: built as for Mutation 1
Kd [1]: 0.749 nM | koff [1]: 0.000398 s⁻¹ | kon [1]: 532000 M⁻¹ s⁻¹

B14: Mutation 5 (antibody, V domains shown)
VH: B1 VH with E31D, Y33F, G56A, T101S, L104I
VL: B1 VL with L29I, L56I, Y101F
notes: built as for Mutation 1
OD 450 nm (reference 630 nm) [3]: 2.2 OD | OD 450 nm (reference 630 nm) [4]: 1.69 OD | OD 450 nm (reference 630 nm) [5]: 0.189 OD | OD 450 nm (reference 630 nm) [6]: 0.721 OD | OD 450 nm (reference 630 nm) [7]: 1.94 OD | OD 450 nm (reference 630 nm) [8]: 0.042 OD | OD 450 nm (reference 630 nm) [9]: 2.2 OD

B16: WT 1-3 (antibody, V domains shown)
VH: B1 VH with L29I, R59K
VL: B1 VL with I30L, L99I
notes: built as for Mutation 1
Kd [1]: 0.549 nM | koff [1]: 0.000348 s⁻¹ | kon [1]: 633000 M⁻¹ s⁻¹

Continued, values first:

Kd [2]: 0.734 nM | koff [2]: 0.000266 s⁻¹ | kon [2]: 362000 M⁻¹ s⁻¹
B2: Mutation 1-6 (antibody, V domains shown)
VH: B1 VH with L29I, E31D, Y33F, E52D, R59K, T101S, L104V
VL: B1 VL with L29I, I30L, K34R, L56V, Q58N, N95Q, L99I
notes: built as for Mutation 1

Kd [2]: 0.963 nM | koff [2]: 0.00023 s⁻¹ | kon [2]: 239000 M⁻¹ s⁻¹
B3: Mutation 1-4 (antibody, V domains shown)
VH: B1 VH with E31D, Y33F, E52D, G56A, R59K, T101S, L104V
VL: B1 VL with I30L, K34R, L56V, Q58N, N95Q, Y101F
notes: built as for Mutation 1

Kd [2]: 0.865 nM | koff [2]: 0.000464 s⁻¹ | kon [2]: 537000 M⁻¹ s⁻¹
B4: Mutation 1-44 (antibody, V domains shown)
VH: B1 VH with L29I, E31D, Y33F, E52D, G56A, R59K, T101S
VL: B1 VL with L29I, I30L, K34R, Q58N, N95Q, Y101F
notes: built as for Mutation 1

Kd [2]: 0.415 nM | koff [2]: 0.000279 s⁻¹ | kon [2]: 673000 M⁻¹ s⁻¹
B6: Mutation 1-14 (antibody, V domains shown)
VH: B1 VH with L29I, E31D, Y33F, E52D, G56A, R59K, T101S, L104I
VL: B1 VL with I30L, K34R, L56I, Q58N, N95Q, L99I, Y101F
notes: built as for Mutation 1

Kd [2]: 0.606 nM | koff [2]: 0.000443 s⁻¹ | kon [2]: 731000 M⁻¹ s⁻¹
B8: Mutation 1-11 (antibody, V domains shown)
VH: B1 VH with L29I, E31D, E52D, G56A, R59K, T101S, L104V
VL: B1 VL with L29I, I30L, K34R, L56V, Q58N, N95Q, L99I, Y101F
notes: built as for Mutation 1

Kd [1]: 1.23 nM | koff [1]: 0.00011 s⁻¹ | kon [1]: 89600 M⁻¹ s⁻¹
B11: WT 1-29 (antibody, V domains shown)
VH: B1 VH with R59K, L104V
VL: B1 VL with I30L, L56V
notes: built as for Mutation 1

OD 450 nm (reference 630 nm) [3]: 2.4 OD | Kd [2]: 0.751 nM | koff [2]: 0.000155 s⁻¹ | kon [2]: 206000 M⁻¹ s⁻¹ | OD 450 nm (reference 630 nm) [4]: 2.07 OD | OD 450 nm (reference 630 nm) [5]: 0.341 OD | OD 450 nm (reference 630 nm) [6]: 0.973 OD | OD 450 nm (reference 630 nm) [7]: 2.35 OD | OD 450 nm (reference 630 nm) [8]: 0.032 OD | OD 450 nm (reference 630 nm) [9]: 2.4 OD
B13: Mutation 1 (antibody, V domains shown)
VH: B1 VH with E31D, Y33F, E52D, G56A, T101S, L104I
VL: B1 VL with L29I, K34R, L56I, Q58N, N95Q, Y101F
notes: No residue numbers are printed, so each chain is built as FR1-CDR1-FR2-CDR2-FR3-CDR3-FR4-constant

OD 450 nm (reference 630 nm) [3]: 2.35 OD | OD 450 nm (reference 630 nm) [4]: 1.86 OD | OD 450 nm (reference 630 nm) [5]: 0.301 OD | OD 450 nm (reference 630 nm) [6]: 0.831 OD | OD 450 nm (reference 630 nm) [7]: 2.25 OD | OD 450 nm (reference 630 nm) [8]: 0.028 OD | OD 450 nm (reference 630 nm) [9]: 2.37 OD
B15: Mutation 3 (antibody, V domains shown)
VH: B1 VH with Y33F, E52D, G56A, L104I
VL: B1 VL with L29I, K34R, L56I, N95Q, Y101F
notes: built as for Mutation 1

Reference: patent US20210340231A1 (FAPON BIOTECH, published 2021)
